The text below walks through data of paper PMC6904456.

Series [1] deals with T1, Thrombin (THR) (UniProt P00734;P00734 328-363;364-622). Description: SPR (D-shaped plastic optical fibre, Langmuir fit); 10 uM aptamer for immobilization; Langmuir K, printed as K [nM]; Immobilization in 10 mM phosphate, 138 mM NaCl, 2.7 mM KCl, pH 7.4; sensing in binding buffer (composition and temperature not given in material).
Series [2] addresses T1, Thrombin (THR). Description: SPR (D-shaped plastic optical fibre); 1-50 nM thrombin, no shift of resonance wavelength; Immobilization in 10 mM phosphate, 138 mM NaCl, 2.7 mM KCl, pH 7.4; sensing in binding buffer (composition and temperature not given in material).

In the case of AGTCCGTGGTAGGGCAGGTTGGGGTGACT (ssDNA, 5' BiotinTEG) [TBA29 (biotin-TBA29 thrombin aptamer)], the Kd (usually the equilibrium constant for the complex coming apart) in the series with Thrombin (THR) [1] came to 21.8 nM.
Consider CACCAATATTTACGTTCTACTCTCCAATA (ssDNA, 5' BiotinTEG) [non specific aptamer sequence], for which, in the series with Thrombin (THR) [2], the binding result is on record as “no binding”.
